Source: US20190328898A1 (AGENSYS, published 2019)

How the values were obtained:
[1] = target: T1, 161P2F10B protein (human, UniProt O14638 1-875); assay: FACS saturation binding on KU812 cells, twelve dilutions, one site fit, n=4
T1 construct: 875 amino acid ORF cloned from kidney cancer patient specimens; Assayed on cells: recombinant on 3T3-161P2F10B cells, endogenous on Ku812/KU812, UGK-3 and RXF-393 cells; also called 161P2F10B antigen; cell surface 161P2F10B
T1 sequence: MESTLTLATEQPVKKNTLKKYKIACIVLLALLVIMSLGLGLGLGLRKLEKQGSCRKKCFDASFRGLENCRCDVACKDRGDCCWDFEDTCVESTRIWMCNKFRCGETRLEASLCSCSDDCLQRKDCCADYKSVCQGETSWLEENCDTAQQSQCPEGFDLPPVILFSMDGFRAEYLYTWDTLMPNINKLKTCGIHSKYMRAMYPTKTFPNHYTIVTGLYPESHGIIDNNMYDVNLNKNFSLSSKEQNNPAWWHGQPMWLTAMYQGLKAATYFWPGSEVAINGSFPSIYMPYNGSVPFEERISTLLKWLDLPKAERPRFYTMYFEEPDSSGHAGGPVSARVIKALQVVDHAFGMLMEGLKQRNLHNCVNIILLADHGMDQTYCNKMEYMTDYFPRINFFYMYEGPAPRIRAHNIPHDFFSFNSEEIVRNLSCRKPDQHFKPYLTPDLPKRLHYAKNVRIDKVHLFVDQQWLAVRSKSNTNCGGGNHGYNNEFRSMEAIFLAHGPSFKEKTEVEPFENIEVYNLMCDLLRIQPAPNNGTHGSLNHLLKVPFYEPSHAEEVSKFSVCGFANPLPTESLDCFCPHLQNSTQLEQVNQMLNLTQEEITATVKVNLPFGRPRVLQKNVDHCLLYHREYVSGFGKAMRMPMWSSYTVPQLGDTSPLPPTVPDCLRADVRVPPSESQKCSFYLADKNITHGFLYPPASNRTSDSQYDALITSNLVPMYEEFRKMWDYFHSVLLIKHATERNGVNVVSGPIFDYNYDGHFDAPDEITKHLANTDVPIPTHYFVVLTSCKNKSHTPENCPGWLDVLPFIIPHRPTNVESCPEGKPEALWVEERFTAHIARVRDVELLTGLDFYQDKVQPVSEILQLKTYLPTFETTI
Description: H16-7.8 and H16-7.8mcMMAF were tested for their binding affinity to 161P2F10B expressed on KU812 cells (human chronic myelogenous leukemia cells, ATCC). Briefly, twelve (12) dilutions of H16-7.8 or H16-7.8mcMMAF were incubated with KU812 cells (50,000 cells per well) overnight at 4° C. at a final concentration of 160 nM to 0.004 nM. At the end of the incubation, cells are washed and incubated with anti-hIgG-PE detection antibody for 45 min at 4° C. After washing the unbound detection antibodies, the cells are analyzed by FACS.
MFI values were entered into Graphpad Prisim software and analyzed using the one site binding (hyperbola) equation of Y=Bmax*X/(Kd+X) to generate H16-7.8 and H16-7.8mcMMAF saturation curves. Bmax is the MFI value at maximal binding of H16-7.8 or H16-7.8mcMMAF to KU812; Kd is H16-7.8 or H16-7.8mcMMAF binding affinity which are the concentration of H16-7.8 or H16-7.8mcMMAF required to reach halfmaximal binding. […] (n=4).

[2] = target: T1, 161P2F10B protein; assay: FACS saturation binding on Ku812 cells, one site fit of MFI
Description: FIG. 6. Cell Binding and Affinity of H16-7.8 and H16-7.8mcMMAF. H16-7.8 and H16-7.8mcMMAF were tested for the binding affinity to 161P2F10B endogenously expressed on Ku812 cells. Briefly, eleven (11) dilutions of H16-7.8 or H16-7.8mcMMAF were incubated with Ku812 cells (50,000 cells per well) overnight at 4° C. at a final concentration of 160 nM to 0.0001 nM. At the end of the incubation, cells were washed and incubated with anti-hIgG-PE detection antibody for 45 min at 4° C. After washing the unbound detection antibodies, the cells were analyzed by FACS. Mean Florescence Intensity (MFI) values are obtained (See, Table IV). MFI values were entered into Graphpad Prisim software and analyzed using the one site binding (hyperbola) equation of Y=Bmax*X/(Kd+X) to generate H16-7.8 or H16-7.8mcMMAF saturation curves shown in FIG. 6. […]
H16-7.8 and H16-7.8mcMMAF were tested for the binding affinity to 161P2F10B endogenously expressed on Ku812 cells. […] After washing the unbound detection antibodies, the cells are analyzed by FACS. […] MFI values were entered into Graphpad Prisim software and analyzed using the one site binding (hyperbola) equation of Y=Bmax*X/(Kd+X) to generate H16-7.8 or H16-7.8mcMMAF saturation curves shown in FIG. 6. […]

[3] = target: T1, 161P2F10B protein; assay: cell-based or functional assay

Row | Kd [1] [nM] | Kd [2] [nM] | IC 50, inhibition of proliferation of KU812 cells (Alamar blue, 6 days), Lot (1) [3] [nM] | IC 50, inhibition of proliferation of KU812 cells (Alamar blue, 6 days), Lot (2) [3] [nM] | Binder | Specific cytotoxicity activity on KU812 cells, IC50 (Alamar Blue, 6 days) [3] [nM]
1 | 0.25 | 0.19 | 0.2 | 0.1 | H16-7.8mcMMAF (antibody, V domains shown, mcMMAF on the cysteine of peptide S208FNRGEC214 in part of the chains (0 or 1 drug per L chain); mcMMAF (maleimidocaproyl-monomethyl auristatin F) on cysteine thiols after partial reduction; predominantly 2 drugs on the hinge peptide C225-K250; 0 to 5 drugs per H chain observed; overall DAR 4.0, a mixture of drug loadings, predominant species 4 drugs; also called H16-7.8mcMMAF ADC; ADC H16-7.8mcMMAF) VH: QVQLQESGPGLVKPSQTLSLTCTVSGGSISSGGYYWSWIRQHPGKGLEWIGIIYYSGSTYYNPSLKSRVTISVDTSKNQFSLKLNSVTAADTAVFYCARVAIVTTIPGGMDVWGQGTTVTVSS VL: EIVLTQSPDFQSVTPKEKVTITCRASQSIGISLHWYQQKPDQSPKLLIKYASQSFSGVPSRFSGSGSGTDFTLTINSLEAEDAATYYCHQSRSFPWTFGQGTKVEIKR | 0.15
2 | 0.08 | 0.06 | – | – | 161P2F10B MAb H16-7.8 (antibody, V domains shown, Fully human IgG2 kappa from XenoMouse; also called native H16-7.8; recombinant H16-7.8) VH: QVQLQESGPGLVKPSQTLSLTCTVSGGSISSGGYYWSWIRQHPGKGLEWIGIIYYSGSTYYNPSLKSRVTISVDTSKNQFSLKLNSVTAADTAVFYCARVAIVTTIPGGMDVWGQGTTVTVSS VL: EIVLTQSPDFQSVTPKEKVTITCRASQSIGISLHWYQQKPDQSPKLLIKYASQSFSGVPSRFSGSGSGTDFTLTINSLEAEDAATYYCHQSRSFPWTFGQGTKVEIKR | –
